{"source": "patent US9347942B2", "about": "“Ultrasensitive cell based sensors and uses thereof” (CANVAX BIOTECH SL, priority 2010, dated 2016)", "type_in_all_cases": "cell-based", "key": {"SSTR2": {"target": "T1, SSTR2 (Homo sapiens, UniProt P30874)", "T1 construct": "the entire human GPCR; mouse immunoglobulin kappa signal peptide (N); expressed in transfected cells", "T1 sequence (P30874 2-369)": "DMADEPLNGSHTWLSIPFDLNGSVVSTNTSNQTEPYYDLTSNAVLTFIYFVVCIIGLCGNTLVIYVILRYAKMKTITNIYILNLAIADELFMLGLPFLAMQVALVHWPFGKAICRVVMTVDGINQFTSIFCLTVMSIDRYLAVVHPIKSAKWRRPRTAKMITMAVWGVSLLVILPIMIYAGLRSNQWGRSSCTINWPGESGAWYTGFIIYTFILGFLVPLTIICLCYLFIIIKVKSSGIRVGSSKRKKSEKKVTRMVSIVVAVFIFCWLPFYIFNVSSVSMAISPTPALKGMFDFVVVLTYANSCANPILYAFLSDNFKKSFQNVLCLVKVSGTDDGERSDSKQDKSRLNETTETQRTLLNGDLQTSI", "experiment": "Agonist-induced exocytosis of granzyme B, sandwich ELISA (Example 9)", "conditions": "agonist 10 uM, 60 minutes", "source_text": "(§1) Human granzyme B was selected as reporter, chimeric promoter of hCMV-MoLV5′LTR as promoter for reporter expression, RBL-2H3 as hemopoyetic cells with professional regulated exocytosis and several GPCRs as exocytosis modulators under the control of Moloney Leukaemia virus 5′-LTR (MoMLV5′LTR, SEQ ID NO:3) as promoter for expression of exocytosis modulators. […] Vectors for expression of granzyme B had the chimeric promoter of hCMV-MoLV5′LTR-GranzymeB-IRES-NGFR with hygromycin resistance for stable transfections. Vectors for GPCR were electroporated first, cells were selected with neomycin at 500 ug/mL for about two weeks and cells were analysed by flow cytometry (Guava Technologies, USA) with anti-cmyc tag antibody (anti-cmyc-FITC, clone 9E10, Sigma-Aldrich, USA) for surface expression. Positive cells were separated by magnetic separation using anti-cmyc monoclonal antibody conjugated to biotin (Miltenyi Biotec, Germany) and streptavidin-MACS (Miltenyi Biotec, Germany). After growing positive fraction of cells was again analysed by flow cytometry with the anti-cmyc tag antibody. Positive cells were individually electroporated with the vector for expression human granzyme B using a microporator (Digital Bio Technology, South Korea) and after 48 hours hygromycin at 1500 ug/mL and neomycin at 500 ug/mL were added to culture for selection. After selection for about 2 weeks cells were analysed by flow cytometry (Guava Technologies, USA) with an antibody against NGFR coupled to FITC. Positive population where magnetically separated by MACS using anti-NGFR-MACS sup.R (Miltenyi Biotec, Germany). Sorted populations were again analysed again by flow cytometry to check both the expression of the GPCR with the anti-cmyc tag antibody and with anti-NGFR antibody to check granzyme B expression. […] GPCRs included were: SSTR2 and CHRM2 as alpha-i coupled GPCRs; AGTR1 and bradykinin type B1 receptor (BDKRB1) as alpha-q coupled GPCRs and AVPR2 as alpha-s coupled GPCR. […] Cells were seeded the night before experiment at 100.000 cells per well of a 96-well microplate in 100 uL of complete cell culture medium. Next day cells were washed with HBSS buffer and incubated with the ligand (agonist) at 10 uM of each GPCR in 30 uL of HBSS buffer at 37 Celsius degrees for 60 minutes and after centrifugation at 400 g for 5 minutes supernatants were analysed for human granzyme B protein by a sandwich ELISA specific for human granzyme B (Ucytech, Netherlands)."}, "hIL8 receptor (hIL8RA)": {"target": "T2, hIL8 receptor (hIL8RA) (Homo sapiens, UniProt P25024)", "T2 construct": "the entire human GPCR; mouse immunoglobulin kappa signal peptide (N); expressed in transfected cells", "T2 sequence (P25024 3-350 limits assumed)": "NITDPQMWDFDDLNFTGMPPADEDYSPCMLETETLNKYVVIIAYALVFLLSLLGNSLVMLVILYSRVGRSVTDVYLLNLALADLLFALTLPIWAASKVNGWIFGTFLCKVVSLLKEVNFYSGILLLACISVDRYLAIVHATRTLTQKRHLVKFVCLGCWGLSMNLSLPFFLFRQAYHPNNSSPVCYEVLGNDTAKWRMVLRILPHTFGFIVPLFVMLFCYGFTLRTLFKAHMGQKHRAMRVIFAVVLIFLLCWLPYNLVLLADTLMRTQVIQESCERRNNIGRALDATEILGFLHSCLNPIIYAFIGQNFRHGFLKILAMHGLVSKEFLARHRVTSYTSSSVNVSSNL", "experiment": "Multiplex assay, Sensor A channel (hIL8RA and human granzyme A) (Example 14)", "conditions": "for Signal to background at 30 min: granzyme A substrate 1 uM", "source_text": "(§2) The principle of multiplex reactions is illustrated in FIG. 5. RBL2H3 cells were stably transfected with a pair of a GPCR as exocytosis modulator and a granzyme as a granule stored reporter as described in example 9. Combinations included were: hIL8 receptor (hIL8RA) and human granzyme A (Sensor A) and CHRM2 and granzyme B expressing cells of example #12 (Sensor B). Human IL8 was used as agonist of hll_8R while carbachol was used as CHRM2 agonist. […] As both substrates uses the same pair of fluorophore (FAM) and quencher (TAMRA) only one substrate could be added to reaction vessel for specific detection at 535 nm after excitation at 485 nm. […] Sensors, agonists and substrates were mixed in a total volume of 20 uL of HBSS in a black walled 384 well microplate and the microplate was incubated at 37 Celsius degrees in a BMG-Labtech microplate fluorimeter and read at 0, 15, 30, 45 and 60 minutes."}, "CHRM2": {"target": "T3, CHRM2 (Homo sapiens, UniProt P08172)", "T3 construct": "the entire human GPCR; mouse immunoglobulin kappa signal peptide (N); expressed in transfected cells", "T3 sequence (P08172 2-466)": "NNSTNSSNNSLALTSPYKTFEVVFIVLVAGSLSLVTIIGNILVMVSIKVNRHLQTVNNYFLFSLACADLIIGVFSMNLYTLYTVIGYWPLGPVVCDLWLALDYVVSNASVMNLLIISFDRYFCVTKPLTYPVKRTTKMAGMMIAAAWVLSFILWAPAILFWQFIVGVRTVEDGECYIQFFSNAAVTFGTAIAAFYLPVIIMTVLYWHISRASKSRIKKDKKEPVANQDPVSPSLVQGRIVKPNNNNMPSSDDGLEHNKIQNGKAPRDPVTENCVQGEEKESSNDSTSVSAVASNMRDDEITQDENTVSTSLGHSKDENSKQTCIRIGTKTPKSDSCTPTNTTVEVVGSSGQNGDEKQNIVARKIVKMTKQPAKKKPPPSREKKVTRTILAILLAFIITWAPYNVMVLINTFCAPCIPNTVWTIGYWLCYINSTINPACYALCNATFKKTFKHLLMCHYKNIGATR", "experiment": "Multiplex assay, Sensor B channel (CHRM2 and granzyme B) (Example 14)", "conditions": "Condition 9: Sensor A 12500 + Sensor B 5000 cells, IL8 10 uM, no carbachol, granzyme B substrate 1 uM", "source_text": "as §2"}, "AGTR1": {"target": "T4, AGTR1 (Homo sapiens, UniProt P30556)", "T4 construct": "the entire human GPCR; mouse immunoglobulin kappa signal peptide (N); expressed in transfected cells", "T4 sequence (P30556 2-359)": "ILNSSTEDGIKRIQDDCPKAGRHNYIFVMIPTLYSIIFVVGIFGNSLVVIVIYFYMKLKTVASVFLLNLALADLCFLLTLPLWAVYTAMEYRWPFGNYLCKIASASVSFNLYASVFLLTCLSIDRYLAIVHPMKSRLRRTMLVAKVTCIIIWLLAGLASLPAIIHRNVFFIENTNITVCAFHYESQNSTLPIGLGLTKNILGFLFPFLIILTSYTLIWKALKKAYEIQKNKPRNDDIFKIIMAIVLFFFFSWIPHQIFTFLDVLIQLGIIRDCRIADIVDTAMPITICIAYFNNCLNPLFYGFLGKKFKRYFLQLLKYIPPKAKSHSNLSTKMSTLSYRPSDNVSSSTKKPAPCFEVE", "experiment": "Agonist-induced exocytosis of granzyme B, sandwich ELISA (Example 9)", "conditions": "agonist 10 uM, 60 minutes", "source_text": "as §1"}, "[1]": {"target": "T5, bradykinin type B1 receptor (BDKRB1) (Homo sapiens, UniProt P46663)", "T5 construct": "the entire human GPCR; mouse immunoglobulin kappa signal peptide (N); expressed in transfected cells", "T5 sequence (P46663 5-353 limits assumed)": "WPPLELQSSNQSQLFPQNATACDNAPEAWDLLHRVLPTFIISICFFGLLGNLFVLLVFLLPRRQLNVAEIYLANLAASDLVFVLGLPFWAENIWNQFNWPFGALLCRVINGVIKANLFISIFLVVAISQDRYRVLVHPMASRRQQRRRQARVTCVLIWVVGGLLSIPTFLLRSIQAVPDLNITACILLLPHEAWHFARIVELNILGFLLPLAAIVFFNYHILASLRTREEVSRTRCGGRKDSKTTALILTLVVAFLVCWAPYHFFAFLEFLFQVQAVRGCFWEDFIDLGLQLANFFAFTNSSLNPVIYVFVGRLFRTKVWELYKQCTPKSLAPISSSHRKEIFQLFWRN", "experiment": "Agonist-induced exocytosis of granzyme B, sandwich ELISA (Example 9)", "conditions": "agonist 10 uM, 60 minutes", "source_text": "as §1"}, "[2]": {"target": "T6, bradykinin type B1 receptor (Homo sapiens, UniProt P46663)", "T6 construct": "the entire human GPCR; mouse immunoglobulin kappa signal peptide (N); expressed in transfected cells", "T6 sequence (P46663 5-353 limits assumed)": "T5 sequence (P46663 5-353 limits assumed)", "experiment": "Exocytosis time optimisation, granzyme B FRET readout (Example 12)", "conditions": "agonist 10 uM", "source_text": "An experiment was designed to optimize assay conditions such as: exocytosis time, number of steps needed for assay and uses of cells in suspension. Cells developed in example #9 expressing both a GPCR and human granzyme B were used in this example for optimization of exocytosis time. GPCRs included were CHRM2 (an alpha-i coupled GPCR) and bradykinin type B1 receptor (an alpha-q coupled GPCR). Carbachol and kallinin from Sigma-Aldrich (USA) were used as ligands for CHRM2 and bradykinin type B1 receptor, respectively and used at 10 uM final concentration in HBSS buffer. Cells were seeded the night before experiment at 20.000 cells per well of a 96-well microplate in 100 uL of complete cell culture medium. Next day cells were washed with HBSS buffer and incubated with the ligand (agonist) at 10 uM of each GPCR in 30 uL of HBSS buffer at 37 Celsius degrees for 5, 15, 30 or 60 minutes and after centrifugation at 400 g for 5 minutes supernatants were analysed for human granzyme B activity using FAM-[…]-TAMRA at 1 uM final concentration as the human granzyme B substrate. Released FAM was measured by excitation at 485 nm and emission at 535 nm in a BMG Labtech microplate fluorimeter in 96 well microplates. Microplates were incubated at 37 Celsius degrees on the reader and were kinetically read at 0, 15, 30, 45 and 60 minutes. Control wells with substrate only in HBSS buffer were included to subtract autofluorescence of substrates to both cells treated with ligands and to cells treated with HBSS buffer only. […] The signal to background is lower at longer exocytosis times due to the higher increase in basal release than the increase in specific signal after the first 5 to 15 minutes. Thus, any exocytosis time from probably less than 5 minutes to at least 60 minutes may be used for the methods of the present invention but longer exocytosis times produce a sensor with a lower signal to background, exocytosis is nearly complete at 5 minutes and signal to background is good for a robust sensor."}, "[3]": {"conditions": "100.000 cells, dilution 2250, after subtraction of 0.2 blank"}}}
{"molecule": "CC(C)[C@@H]1NC(=O)[C@H](CCCCN)NC(=O)[C@@H](Cc2c[nH]c3ccccc23)NC(=O)[C@H](Cc2ccc(O)cc2)NC(=O)[C@H](C)N(C)C(=O)[C@H](Cc2ccccc2)NC1=O", "note": "[Seglitide, seglitide]", "values": [{"measurement": "Absorbance at maximal dilution of ELISA tested", "setting": "SSTR2; [3]", "result": 2.4}, {"measurement": "Sensitivity (minimal amount of cells needed)", "setting": "SSTR2; granzyme B ELISA", "result": "<150", "unit": "cells"}]}
{"molecule": "IL8: Human IL8 used as agonist of hIL8R", "values": [{"measurement": "Signal to background at 30 min", "setting": "hIL8 receptor (hIL8RA); Condition 2: 12500 cells Sensor A, IL8 10 uM", "result": 16}, {"measurement": "Signal to background at 30 min", "setting": "hIL8 receptor (hIL8RA); Condition 5: Sensor A 12500 + Sensor B 5000 cells, IL8 10 uM + carbachol 10 uM", "result": 12.5}, {"measurement": "maximal granzyme A activity secreted by sensor A upon IL8, relative to granzyme B activity secreted by sensor B upon carbachol", "setting": "hIL8 receptor (hIL8RA); first experiment, data not shown", "result": "about 40%"}, {"measurement": "Signal to background at 30 min", "setting": "CHRM2", "result": 0.95}]}
{"molecule": "angiotensin", "values": [{"measurement": "Absorbance at maximal dilution of ELISA tested", "setting": "AGTR1; [3]", "result": 1.8}, {"measurement": "Sensitivity (minimal amount of cells needed)", "setting": "AGTR1; granzyme B ELISA", "result": "<150", "unit": "cells"}]}
{"molecule": "kallinin", "values": [{"measurement": "Absorbance at maximal dilution of ELISA tested", "setting": "[1]; [3]", "result": 0.8}, {"measurement": "Sensitivity (minimal amount of cells needed)", "setting": "[1]; granzyme B ELISA", "result": "<150", "unit": "cells"}, {"measurement": "exocytosis, % of maximal", "setting": "[2]; 5 minutes, 20.000 cells", "result": "> 90", "unit": "%"}, {"measurement": "signal to background (S/B)", "setting": "[2]; medium taken at 5 to 15 minutes", "result": "20-22"}, {"measurement": "signal to background (S/B)", "setting": "[2]; medium taken at 30 minutes", "result": "15-17"}, {"measurement": "signal to background (S/B)", "setting": "[2]; medium taken at 60 minutes", "result": "8-10"}]}
